Experimental data as given in patent US20210284747A1.

Key:
[1] = target: Wild type full length LIGHT on HEK293FF cells (alanine scanning control) (UniProt O43557); assay: flow cytometry, HEK293FF, mAb at EC50
[2] = target: Human LIGHT stably expressed on EL4 cells (EL4-LIGHT) (human) (UniProt O43557); assay: flow cytometry, EL4-LIGHT cells
[3] = target: LIGHT without residues 81-84, stably expressed on EL4 cells (EL4-NC-LIGHT); assay: cell-based or functional assay

Chain of Human LIGHT stably expressed on EL4 cells (EL4-LIGHT) (human) (O43557 whole entry, the tested form may be a part): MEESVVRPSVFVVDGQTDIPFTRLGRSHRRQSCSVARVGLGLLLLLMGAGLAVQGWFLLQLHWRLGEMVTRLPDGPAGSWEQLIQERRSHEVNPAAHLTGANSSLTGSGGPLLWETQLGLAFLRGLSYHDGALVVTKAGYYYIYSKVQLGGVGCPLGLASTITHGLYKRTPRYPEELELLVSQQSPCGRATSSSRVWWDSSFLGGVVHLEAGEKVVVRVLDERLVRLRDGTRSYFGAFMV

| Binder | % of WT binding [1] | EC50 [2] | IC50, inhibition of IL-8 secretion, HT-29 + EL4-NC-LIGHT cells [3] |
| --- | --- | --- | --- |
| 3B04 chimeric IgG4 mAb (antibody, V domains shown) VH: QVQLQQPGAELVRPGASVTLSCKASGYTFTDYEMHWVKQTPVHGLEWIGEIDPETGDTAYSQKFKGKATLTADKSSSTAYMEFRSLTSEDSAVYYCSRETDYFFDYWGQGTTLTVSS VL: DIQMTQTPASLSASVGETVTITCGASENIYGALNWYQRKQGKSPQLLIYGATNLADGMSSRFSGSGSGRQYSLKISSLHPDDFATYYCQNVLTTPWTFGGGTKLEIK | 100% | – | – |
| 3A07 chimeric IgG4 mAb (antibody, V domains shown) VH: QVQLQQSGAELVRPGAPVTLSCKASDYTFTDSEIHWVKQTPVHGLEWIGEIDPETGGTAYNQKFKGKATLTADKSSSTAYMELRSLTSEDSAVYYCSRETDYFFDYWGQGTTLTVSS VL: ENVLTQSPAIMSASPGEKVTMTCSASSSVSYMYWYQQRPGSSPRLLIYDTSNLASGVPVRFSGSGSGTSYSLTISRMEAEDAATYYCQQWSSYPLTFGSGTKLEIK | 100% | – | – |
| 2E08 chimeric IgG4 mAb (antibody, V domains shown) VH: QVQMKESGAELVRPGVSVKISCKGSGYTFTDYAIHWVKQSHAKTLEWIGVISTYYGDASYNQKFKGKATMTVDKSSSTAYMELARLTSDDSAIYYCARSRGEYGNYDAMDYWGQGTSVTVSS VL: DIVLTQSPASLAVSLGQRATISCKASQSVDYDGDSYMNWYQQKPGQPPKLLIYAASNLESGIPARFSGSGSGTDFTLNIHPVEEEDAATYYCQQSNEDPLTFGAGTKLELK | 100% | – | – |
| 2B11 chimeric IgG4 mAb (antibody, V domains shown) VH: EVQLVESGAELVRPGVSVKISCKGSGYTFTDYAIHWVKQSHAKSLEWIGVISTYYGDASYNQKFKGKATMTVDKSSSTAYMELARLTSEDSAIYYCARSRGEYGNYDAMDYWGQGTSVTVSS VL: DIVLTQSPASLAVSLGQRATISCRASESVDSYGNSFMHWYQQKPGQPPKLLIYRASNLESGIPARFSGSGSRTDFTLTINPVEADDVATYYCQQSNEDPYTFGGGTKLEIK | 100% | – | – |
| 3B04_var13 (antibody, V domains shown) VH: QVQLVQSGAEVKKPGASVKVSCKASGYTFTDYEMHWVRQAPGQGLEWIGEIDPETGDTAYSQKFKGRATLTADKSTSTAYMEFSSLRSEDTAVYYCSRETDYFFDYWGQGTLVTVSS VL: DIQMTQSPSSLSASVGDRVTITCRASENIYGALNWYQQKPGKAPKLLIYGATNLAEGVPSRFSGSGSGRDYTLTISSLQPEDFATYYCQNVLTTPWTFGQGTKLEIKR | – | 320 pM | 40 pM |
| 3B04_var16 (antibody, V domains shown) VH: QVQLVQSGAEVKKPGASVKVSCKASGYTFTDYEMHWVRQAPGQGLEWMGEIDPETGDTAYAQKFQGRVTLTADKSTSTAYMELSSLRSEDTAVYYCSRETDYFFDYWGQGTLVTVSS VL: DIQMTQSPSSLSASVGDRVTITCRASENIYGALNWYQQKPGKAPKLLIYGATNLAEGVPSRFSGSGSGRDYTLTISSLQPEDFATYYCQNVLTTPWTFGQGTKLEIKR | – | 240 pM | 100 pM |
| 3B04_var14 (antibody, V domains shown) VH: QVQLVQSGAEVKKPGASVKVSCKASGYTFTDYEMHWVRQAPGQGLEWIGEIDPETGDTAYSQKFQGRVTLTADKSTSTAYMEFSSLRSEDTAVYYCSRETDYFFDYWGQGTLVTVSS VL: DIQMTQSPSSLSASVGDRVTITCRASENIYGALNWYQQKPGKAPKLLIYGATNLAEGVPSRFSGSGSGRDYTLTISSLQPEDFATYYCQNVLTTPWTFGQGTKLEIKR | – | 300 pM | 50 pM |

More lines, now with the values ahead:

| % of WT binding [1] | EC50 [2] | IC50, inhibition of IL-8 secretion, HT-29 + EL4-NC-LIGHT cells [3] | Binder |
| --- | --- | --- | --- |
| 100% | – | – | 3C10 chimeric IgG4 mAb (antibody, V domains shown) VH: EVQLQQSGAELVRPGASVTLSCKASDYTFTDSEIHWVKQTPVHGLEWIGEIDPETGGTAYNQKFKGKATLTADKSSSTAYMELRSLTSEDSAVYYCSRETDYFFDYWGQGTTLTVSS VL: DVVMTQTPAIMSASPGEKVTMTCSASSSVSYMYWYQQKPGSSPRLLIYDTSNLASGVPVRFSGSGSGTSYSLTISRMEAEDAATYYCQQWSSYPLTFGAGTKLELK |
| 100% | – | – | 3D12 chimeric IgG4 mAb (antibody, V domains shown) VH: QVQLQQPGAELVRPGASVTLSCKASDYTFTDSEIHWVKQTPVHGLEWIGEIDPETGGTAYNQKFKGKATLTADKSSSTAYMELRSLTSEDSAVYYCSRETDYFFDYWGQGTTLTVSS VL: DIQMTQSPASLSASVGETVTITCGASENIYGALNWYQRKQGKSPQLLIYGATNLADGMSSRFSGSGSGRQYSLKISSLHPDDVATYYCQNVLSTPWTFGGGTKLEIK |
| – | 230 pM | 450 pM | 3D12_var14 (antibody, V domains shown) VH: QVQLVQSGAEVKKPGASVKVSCKASDYTFTDSEIHWVRQAPGQGLEWIGEIDPETGGTAYNQKFQGRVTLTADKSTSTAYMELSSLRSEDTAVYYCSRETDYFFDYWGQGTLVTVSS VL: DIQMTQSPSSLSASVGDRVTITCRASENIYGALNWYQQKPGKAPKLLIYGATNLAEGVPSRFSGSGSGRDYTLTISSLQPEDVATYYCQNVLSTPWTFGQGTKLEIKR |
| – | 260 pM | 520 pM | 3D12_var16 (antibody, V domains shown) VH: QVQLVQSGAEVKKPGASVKVSCKASGYTFTDSEMHWVRQAPGQGLEWMGEIDPETGGTAYAQKFQGRVTLTADKSTSTAYMELSSLRSEDTAVYYCSRETDYFFDYWGQGTLVTVSS VL: DIQMTQSPSSLSASVGDRVTITCRASENIYGALNWYQQKPGKAPKLLIYGATNLAEGVPSRFSGSGSGRDYTLTISSLQPEDVATYYCQNVLSTPWTFGQGTKLEIKR |
| – | 240 pM | 450 pM | 3D12_var13 (antibody, V domains shown) VH: QVQLVQSGAEVKKPGASVKVSCKASDYTFTDSEIHWVRQAPGQGLEWIGEIDPETGGTAYNQKFKGRATLTADKSTSTAYMELSSLRSEDTAVYYCSRETDYFFDYWGQGTLVTVSS VL: DIQMTQSPSSLSASVGDRVTITCRASENIYGALNWYQQKPGKAPKLLIYGATNLAEGVPSRFSGSGSGRDYTLTISSLQPEDVATYYCQNVLSTPWTFGQGTKLEIKR |
| – | 220 pM | 380 pM | 3D12_var15 (antibody, V domains shown) VH: QVQLVQSGAEVKKPGASVKVSCKASDYTFTDSEIHWVRQAPGQGLEWMGEIDPETGGTAYAQKFQGRVTLTADKSTSTAYMELSSLRSEDTAVYYCSRETDYFFDYWGQGTLVTVSS VL: DIQMTQSPSSLSASVGDRVTITCRASENIYGALNWYQQKPGKAPKLLIYGATNLAEGVPSRFSGSGSGRDYTLTISSLQPEDVATYYCQNVLSTPWTFGQGTKLEIKR |
